To fix the notation:
B1: [^19F]FBA-PEG11-RSDLTPLF-NH2 (peptide)
peptide: {(^19F)FBA-PEG11′}-RSDLTPLF-NH2
B2: [^19F]FBA-PEG11-RSDLTPLF-PEG11-NH2 (peptide)
peptide: {(^19F)FBA-PEG11′}-RSDLTPLF-{PEG11′-NH2}
B3: [^19F]FBA-RSDLTPLF-PEG11-NH2 (peptide)
peptide: {(^19F)FBA}-RSDLTPLF-{PEG11′-NH2}
B4: [^19F]FBA-RSDLTPLF-NH2 (peptide)
peptide: {(^19F)FBA}-RSDLTPLF-NH2
B5: H-…([^19F]FBA)-NH2 (peptide)
peptide: H-RSDLTPLFK((^19F)FBA)-NH2

Primed or numbered codes have the meaning given here. The star is where a group is joined. (^19F)FBA = O=C(c1ccc([19F])cc1)*; PEG11′ = not defined here

The assay has as its target T1, αvβ6 integrin (purified, captured on the ELISA plate), P06756.
T1 chain 1: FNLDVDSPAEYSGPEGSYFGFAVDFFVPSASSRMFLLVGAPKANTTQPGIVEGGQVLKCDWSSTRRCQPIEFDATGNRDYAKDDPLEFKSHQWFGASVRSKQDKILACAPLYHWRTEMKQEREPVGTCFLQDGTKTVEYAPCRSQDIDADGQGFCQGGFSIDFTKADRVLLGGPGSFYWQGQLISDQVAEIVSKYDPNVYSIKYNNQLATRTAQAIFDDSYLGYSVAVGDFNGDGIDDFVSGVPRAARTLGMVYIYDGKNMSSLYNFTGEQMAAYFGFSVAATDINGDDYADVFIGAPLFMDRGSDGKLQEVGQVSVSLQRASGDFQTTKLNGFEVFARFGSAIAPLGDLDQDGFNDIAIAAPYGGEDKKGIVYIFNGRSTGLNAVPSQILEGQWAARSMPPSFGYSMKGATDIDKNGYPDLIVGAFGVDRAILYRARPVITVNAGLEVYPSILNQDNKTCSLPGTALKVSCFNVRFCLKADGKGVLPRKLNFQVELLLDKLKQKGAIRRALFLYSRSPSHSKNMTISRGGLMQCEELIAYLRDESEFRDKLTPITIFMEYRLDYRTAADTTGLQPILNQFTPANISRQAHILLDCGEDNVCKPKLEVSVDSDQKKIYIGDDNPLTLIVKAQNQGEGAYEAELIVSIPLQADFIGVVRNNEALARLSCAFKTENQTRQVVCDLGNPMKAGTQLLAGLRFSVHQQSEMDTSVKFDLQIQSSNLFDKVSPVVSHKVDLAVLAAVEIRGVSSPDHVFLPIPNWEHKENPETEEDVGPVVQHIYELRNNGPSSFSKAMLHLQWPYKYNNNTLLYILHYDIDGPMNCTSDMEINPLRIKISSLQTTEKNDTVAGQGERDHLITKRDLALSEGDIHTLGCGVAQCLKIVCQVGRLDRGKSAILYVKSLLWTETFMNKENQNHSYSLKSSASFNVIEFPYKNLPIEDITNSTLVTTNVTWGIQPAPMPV
T1 chain 2: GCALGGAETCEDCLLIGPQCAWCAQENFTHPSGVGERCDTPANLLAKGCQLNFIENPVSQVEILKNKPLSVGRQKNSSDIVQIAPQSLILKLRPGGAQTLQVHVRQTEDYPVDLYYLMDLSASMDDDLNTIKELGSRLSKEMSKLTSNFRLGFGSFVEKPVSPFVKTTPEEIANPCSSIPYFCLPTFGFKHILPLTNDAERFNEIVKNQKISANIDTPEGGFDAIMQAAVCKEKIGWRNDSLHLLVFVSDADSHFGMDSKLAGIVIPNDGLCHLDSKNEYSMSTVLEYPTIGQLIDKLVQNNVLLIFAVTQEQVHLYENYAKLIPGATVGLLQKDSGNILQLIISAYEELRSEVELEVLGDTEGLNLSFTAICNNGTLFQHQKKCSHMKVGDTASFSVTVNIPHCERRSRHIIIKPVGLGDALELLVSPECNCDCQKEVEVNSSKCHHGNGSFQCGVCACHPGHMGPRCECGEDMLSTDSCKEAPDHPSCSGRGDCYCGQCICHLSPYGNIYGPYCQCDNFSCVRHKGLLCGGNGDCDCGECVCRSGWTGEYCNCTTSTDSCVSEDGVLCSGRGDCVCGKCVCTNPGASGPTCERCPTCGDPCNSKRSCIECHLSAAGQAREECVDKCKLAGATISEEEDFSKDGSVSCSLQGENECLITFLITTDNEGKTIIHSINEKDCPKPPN
Kind of assay: competitive ELISA; captured αvβ6; competitor biotinylated fibronectin.
On to B1, for which the IC50 was 40 nM.

As to B2, the IC50 is 25 nM.

B3 came in with an IC50 of 40 nM.

Molecule B4 yielded an IC50 of 7 nM.

Molecule B5 registered an IC50 of 34 nM.

The term IC50 denotes the point on the concentration scale where inhibition reaches its midpoint.

The record behind these values is US20210206804A1.
